According to the supplement of paper PMC9170038:

Test system: MS2 coat protein
Test: apparent KD of MS2 coat protein; designed switch direction (-1 OFF switch, 1 ON switch): -1; higher = weaker reporter binding
Outline: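 RNA switches sharing common flanks were transcribed by stalled E. coli RNA polymerase on Illumina chips. A doubling series of SNAP-549-labelled MS2 coat protein, from 0.7 or 1.5 nM to 3 µM, was applied in Tris-HCl pH 7.5 buffer with KCl, MgCl2, BSA, DTT, tRNA and Tween-20. Each step lasted 0.8–1.5 h at the bottom of the series and 10–20 min at the top. Normalised cluster fluorescence was curve-fitted, giving apparent KD as the per-design median over clusters.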

[1] = input ligand: microRNA oligo, concentration not stated
[2] = Eterna round: R95, input ligand: FMN 200 uM
[3] = Eterna round: R95, input ligand: microRNA oligo, concentration not stated
[4] = Eterna round: R95, input ligand: none

Sequence | apparent KD of MS2 coat protein (input ligand: FMN 200 uM) [nM] | apparent KD of MS2 coat protein [1] [nM] | apparent KD of MS2 coat protein (input ligand: none) [nM] | apparent KD of MS2 coat protein [2] [nM] | apparent KD of MS2 coat protein [3] [nM] | apparent KD of MS2 coat protein [4] [nM]
AAGAAGAGGUGAGGAUAUCGAAGUACAGGCUGGGACUCGGACUACAUGAGGAUCACCCAUGUAUACGAGAAGGCACUUCGAUAA [Quusatrare] (Eterna round: R96, puzzle: Exclusion NG 2) | 12.6 | 12 | 14.7 |  |  | 
AGGAUACAUGAGGAUCACCCAUGUGAGGAUAUACGAUAGCUCAGGAAGAGAUUAGUAUGUAGAAGGUGCGGGUG [Eternabot (L1) Solution 49] (Eterna round: R97, puzzle: Exclusion 1) | 205 |  | 198 |  |  | 
CAUGAUCUUCGGAUCAUGUACAUGAGGAUCACCCAUGUUACGAGUUGAUCCUCAUACAAGCUUUUUGCUCGUCUUAU [Sensor v3 - Turn-off variant 1 - 26] (puzzle: Sensor v3, turn-off variant 1) |  |  |  | 22.2 | 14.8 | 20.8
UGAAUGUCAGAGGAUAUGCACGAUUGGACCGAGGCAGAAGGCUGAACAUGAGGAUCACCCAUGUCAAGAUCUUC [Eternabot (L1) Solution 93] (Eterna round: R97, puzzle: Exclusion 6) | 180 |  | 26.3 |  |  | 
AAGAGGAUUACAGGAUAUGAAGCUAAAACGGCGUUAGAAGGGUAUACAGAGUUACAUGAGGAUCACCCAUGUUGUGAUUUCUAA [AK ExNG1-V2-4.2] (Eterna round: R96, puzzle: Exclusion NG 1) | 48.4 | 38.4 | 49.2 |  |  | 
UUUAGUUCAGGAUAUGUAGAUUUAAACAUGAGGAUCACCCAUGUAGAUCCUGAUCCUGCUACAGAAGGGAACAUUU [Exclusion 5: 2:a mod1] (Eterna round: R97, puzzle: Exclusion 5) | 72.9 |  | 24.3 |  |  | 
GGUGCGUAUGUGAGGAUAUGCUGGUCCUUGGGUCGGCAGAAGGCACAUGAGGAUCACCCAUGUGGUGUCGUUCC [salish99_Bmod_ex4_101] (Eterna round: R96, puzzle: Brourd's mod of Exclusion 4) | 378 | 80.3 | 122 |  |  | 
CACGCAUCAGGAUAUACAUGAGGAUCACCCAUGUGUUCCAGCUAGGAAACUAGCAAAUGUAGAAGGGAUGCGUG [Mat - Exclusion 3 - JL Mod - D7] (Eterna round: R97, puzzle: Exclusion 3) | 727 |  | 208 |  |  | 
AGUACUAACACGAGAGUGUUAGUACUAUAAGCUUGUGAAACAUGAGGAUCACCCAUGUCCUCAUAAGCUCGUCUUAU [Mat - Sensor v3 - Turn-off var 2 - D103] (puzzle: Sensor v3, turn-off variant 2) |  |  |  | 15.3 | 682 | 12.5
UAGGACAAAGGAUAUACGUGUUAUGAUCGGGAUAACAAAAGACAUGAGGAUCACCCAUGUAGAAGGUUGCUUGA [EX2 B.25] (Eterna round: R97, puzzle: Exclusion 2) | 26.2 |  | 17.8 |  |  | 
GCGUGACAUGAGGAUCACCCAUGUGAGGAUAUCUGGAUACUCUUUAUUUUAGAUAUCCAGAGAAGGCACAUGCU [Ex1-3: 4Z] (puzzle: Exclusion 1) |  |  |  |  | 191 | 
GUUAAACAUGAGGAUCACCCAUGUAAGGAUAUGCUGAGGUAGCGCUGACGUGAAUGAAGCAGAAGGUACAAAUG [Mat - Mod of JL D64] (puzzle: Exclusion 1) |  |  |  | 66.4 | 93.3 | 62
CCCGUCGAUGUAGGAUAUGCCCGGGUCUCCCGGGCAGAAGGACAUGAGGAUCACCCAUGUUCAUGAGGAUCACCCAUGAAUGGG [Double but mutated MS2] (Eterna round: R96, puzzle: Exclusion NG 1) | 12.1 | 12.1 | 16.6 |  |  | 
GUUGUUUAUGUAGGAUAUGCCUGGCGUGCCUAAGCAGAAGGACAUGAGGAUCACCCAUGUAUUGCGGUCUGCGUUCAGAUCGCU [salish99_ExNG1_r4_019] (Eterna round: R96, puzzle: Exclusion NG 1) | 36.8 | 17.2 | 23.8 |  |  | 
AGUAACCGUCACGAAAGUGAUGGUUACGCAAGCAAUUGUACAUGAGGAUCACCCAUGUCCUCAUUUGCUCGUCUUAU [Sensor 3 - 42] (puzzle: Sensor v3, turn-off variant 2) |  |  |  | 313 | 378 | 357
GAUUAGCGAGGAUAUACAUGAGGAUCACCCAUGUGAUCCUAAGGCUGAUCAAGCCUAUGUAGAAGGCGCAAAUC [salish99_ex3_r5_001] (Eterna round: R97, puzzle: Exclusion 3) | 35.2 |  | 224 |  |  | 
GUAGAGUCAGGAUAUACAGAAGAAGCAUGGAAAACAUGGAUACAUGAGGAUCACCCAUGUAGAAGGGACUCUAC [ChP 11-04-2015 #2] (puzzle: Exclusion 2) |  |  |  | 83.6 | 33.2 | 41.5

Sequence | apparent KD of MS2 coat protein (input ligand: FMN 200 uM) [nM] | apparent KD of MS2 coat protein [1] [nM] | apparent KD of MS2 coat protein (input ligand: none) [nM] | apparent KD of MS2 coat protein [2] [nM] | apparent KD of MS2 coat protein [3] [nM] | apparent KD of MS2 coat protein [4] [nM]
GACUGAACGUGGUCUGGUUACAUGAGGAUCACCCAUGUAGGUCUAAGAACAUGUCUUUUGUACGCUCGUCUUAUAUA [JR_SV3TOV1_Sub066] (puzzle: Sensor v3, turn-off variant 1) |  |  |  | 16.7 | 38.1 | 15
GUUAAUUGUCAGAUGGGUGACAUGAGGAUCACCCAUGUCACAAGCUUUUUGCUCGUCUUAUAAUUAACCCAUCUGAC [Stov1/11-A3] (Eterna round: R97, puzzle: Sensor, turn-off variant 1) | 13.6 |  | 13.3 |  |  | 
AGGGAUAAAGGAUAUACAUGAGGAUCACCCAUGUUGAGGAAAGUUAGAUGAGGAGGAAGUAGAAGGUUAGACGA [JR_Exclu3_Sub087] (puzzle: Exclusion 3) |  |  |  | 24.3 | 35.4 | 42.5
CGCCUGUAAGGAUAUUAGUAGUAGUCAGAAUAGACUAUUACUGAGAAGGUACAUGAGGAUCACCCAUGUUGGCG [Eli x4 4.10] (Eterna round: R97, puzzle: Exclusion 4) | 19.7 |  | 18.5 |  |  | 
UUUUUCUCAGGAUAUACAUGAGGAUCACCCAUGUAUAUUGAUGAUAAUACAUGGGAAUGUAGAAGGGAGCUCAU [Omei Ex3 Pseudoloop 16] (Eterna round: R97, puzzle: Exclusion 3) | 87.9 |  | 95.7 |  |  | 
CGGCAAUCCUAGGAUAUGCUAGACGAAAGUCUAGCAGAAGGAGGAACAUGAGGAUCACCCAUGUGUCCUAGCCG [Eli x6 4.02] (Eterna round: R97, puzzle: Exclusion 6) | 23.5 |  | 20.2 |  |  | 
GGUACUAACACGAGAGUGUUAGUACUAUAAGCUUGUGUUACAUGAGGAUCACCCAUGUCCUCAUAAGCUCGUCUUAU [Mat - Sensor v3 - Turn-off var 2 - D76] (puzzle: Sensor v3, turn-off variant 2) |  |  |  | 137 | 89.6 | 156
UGCCCGGUUAGAGGAUAUCUACUGUGACUGGGUUUUCCAAAACAUGAGGAUCACCCAUGUGACGGAGAGAAGGCUAGCCUUAAA [Anedanage] (Eterna round: R96, puzzle: Exclusion NG 2) | 26.8 | 31.1 | 40.1 |  |  | 
ACUGGUCGAGGAUAUACAUGAGGAUCACCCAUGUGAUCAGCAGUCCUCGGACUGCAAUGUAGAAGGCGACCAGU [E3/1-A2] (Eterna round: R97, puzzle: Exclusion 3) | 143 |  | 356 |  |  | 
AUCAUGUAAGGAUAUCUUAUAUGGAUCGAAAGAUCAAGUUAAGAGAAGGUACAUGAGGAUCACCCAUGUAUAAC [Ex4-3: 33] (puzzle: Exclusion 4) |  |  |  |  | 19.4 | 
UCUGUUAUGCGAGGAUAUCGACCAUUCCUCUUAACAUGAGGAUCACCCAUGUGCUAAUCCUUCAACGAGAAGGCGCUCUUACUC [JR_ExcNG2_Sub069] (Eterna round: R96, puzzle: Exclusion NG 2) | 346 | 114 | 268 |  |  | 
UAUUAGCAAGCAAGAUCCUACAUGAGGAUCACCCAUGUGCUCGUCUUAAGCCCAGAAUUACUGGGCGCUCGUCUUAU [Winner reversed engineered 21] (Eterna round: R97, puzzle: Sensor, turn-off variant 1) | 521 |  | 684 |  |  | 
GGAUUUACUGAGGAUAUUGCAUCACCCGACUGAUAAGAAGGCAGAACAUGAGGAUCACCCAUGUGGGUAGUCAA [Bingo-Bango-3] (Eterna round: R97, puzzle: Exclusion 6) | 29.6 |  | 19.5 |  |  | 
ACAAGCUUAAUCUGUAUGAACAUGAGGAUCACCCAUGUAUAAGGGAAUUCUUUUGGGUUUUUUAUUGCUCGUCUUAU [JR_STOV1_Sub021] (Eterna round: R97, puzzle: Sensor, turn-off variant 1) | 317 |  | 311 |  |  | 
UGUUGUUCAGGAUAUGAUGUAUAAUACAUGAGGAUCACCCAUGUAGAUCCUGAAUUAACAUCAGAAGGGAAUGUUG [salish99_ex5_r4_102] (Eterna round: R97, puzzle: Exclusion 5) | 19.4 |  | 15.2 |  |  | 
ACAAGGAUGAAGGAUAUGGAAGAGUGGGAGCCUCCAGAAGGUCGUACAUGAGGAUCACCCAUGUAUUGGGCUUA [Eternabot (L2) Solution 38] (Eterna round: R97, puzzle: Exclusion 6) | 22.5 |  | 21 |  |  | 
